Paper doi:10.1101/2021.08.12.456111
Positions count from the first letter of the chain named. In names and notes the source's numbering stands.

B1: MBP-GGDEF_(SoPdeB), GGDEF domain of S. oneidensis PdeB, wild type (domain or fragment)
chain: RSLAVCYLDLEQFKLINDSCGHTAGDRMLAMVARAIQSCLGPQELLARIGGDEFGLVICDRTALAVAQLLKQIIAQVSLQVLHDKNCNYKVGLSIGVAFGRAPYINAQELLKDADIACIAAKAKGTNQIHIYDD
B2: SoGGDEF_(PdeB) K577S (domain or fragment)
chain: B1 chain with K124S
B3: SoGGDEF_(PdeB) K575S (domain or fragment)
chain: B1 chain with K122S

Assays:
[1] = target: FimV_(SoHubP), C-terminal FimV domain of S. oneidensis HubP (S. oneidensis); assay: interferometric scattering mass spectrometry
[2] = target: FimV_(SoHubP), C-terminal FimV domain of S. oneidensis HubP (S. oneidensis); assay: BLI

Binder | stoichiometry N (GGDEF per FimV (2:2 complex)) [1] | Kd [2] | fold increase of KD against wild type [2]
B1 | 1 | 200 nM | –
B2 | – | – | 10 fold
B3 | – | – | 100 fold
